Earlier results on two substances are cited in US20070178499.

As a reminder, the Kd is the constant that tells how readily two partners part at equilibrium.

Series [1] concerns E2C(S) 6-finger (artificial). To be noted: CITED (Beerli 2000).
The test system of series [2] is Aart(S) 6-finger (artificial). To be noted: CITED?; affinity stated without method.

Regarding E3 site of erbB-3, in series [1], the binding signal (fold loss in affinity vs n8) was 15. For Aart 18-bp target site, in series [2], the dissociation constant Kd is 7.5 pM.
